Legend:
Mtr4p-P731S = target: T1, Mtr4p-P731S (Saccharomyces cerevisiae, UniProt P47047 1-1073, P731S); test: EMSA; no ATP or Mg2+ listed; 1 mM EDTA; EMSA: 0.5 nM RNA, 10 mM Tris pH 7.5, 1 mM EDTA, 100 mM KCl, 0.1 mM DTT, 5% glycerol, 1% NP40, on ice 30 min; 5% native PAGE at 4 C; conditions: protein: recombinant; tags: His (His60 Ni purification); label: 5' 32P on R4 (top strand); 16 bp duplex, 3' overhang 6 nt on R1
T1 sequence: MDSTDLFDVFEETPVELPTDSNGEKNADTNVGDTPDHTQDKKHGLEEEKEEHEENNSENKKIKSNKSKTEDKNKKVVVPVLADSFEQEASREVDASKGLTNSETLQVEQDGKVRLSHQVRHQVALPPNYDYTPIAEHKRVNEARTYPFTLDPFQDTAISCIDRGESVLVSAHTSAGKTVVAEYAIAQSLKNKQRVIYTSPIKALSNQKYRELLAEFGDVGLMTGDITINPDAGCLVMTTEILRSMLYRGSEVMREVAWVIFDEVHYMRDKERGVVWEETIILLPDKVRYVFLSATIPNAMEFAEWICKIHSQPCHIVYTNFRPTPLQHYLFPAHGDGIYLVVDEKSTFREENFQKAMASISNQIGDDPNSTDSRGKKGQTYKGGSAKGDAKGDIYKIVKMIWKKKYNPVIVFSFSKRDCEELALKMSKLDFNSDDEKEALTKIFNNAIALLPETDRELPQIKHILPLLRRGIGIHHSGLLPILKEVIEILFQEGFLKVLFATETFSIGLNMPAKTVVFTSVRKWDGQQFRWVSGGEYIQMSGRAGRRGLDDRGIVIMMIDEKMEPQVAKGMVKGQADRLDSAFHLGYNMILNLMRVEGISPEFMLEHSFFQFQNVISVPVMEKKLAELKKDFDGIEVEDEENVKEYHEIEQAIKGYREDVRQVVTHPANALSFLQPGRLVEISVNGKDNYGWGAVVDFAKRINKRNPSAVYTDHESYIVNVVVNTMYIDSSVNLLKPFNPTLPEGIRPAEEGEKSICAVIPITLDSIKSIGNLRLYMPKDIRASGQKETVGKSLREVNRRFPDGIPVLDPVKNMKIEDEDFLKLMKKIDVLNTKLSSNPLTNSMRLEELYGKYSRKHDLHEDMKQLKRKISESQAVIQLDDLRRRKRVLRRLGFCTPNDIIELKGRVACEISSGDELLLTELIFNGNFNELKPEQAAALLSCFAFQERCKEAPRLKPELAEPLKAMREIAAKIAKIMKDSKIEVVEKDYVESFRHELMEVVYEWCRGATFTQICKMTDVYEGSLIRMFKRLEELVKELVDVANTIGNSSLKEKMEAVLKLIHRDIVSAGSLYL

Mtr4p-K700N = target: T2, Mtr4p-K700N (Saccharomyces cerevisiae, UniProt P47047 1-1073, K700N); test: as above; conditions: protein: recombinant; tags: His (His60 Ni purification); label: 5' 32P on R4 (top strand); 16 bp duplex, 3' overhang 6 nt on R1
T2 sequence: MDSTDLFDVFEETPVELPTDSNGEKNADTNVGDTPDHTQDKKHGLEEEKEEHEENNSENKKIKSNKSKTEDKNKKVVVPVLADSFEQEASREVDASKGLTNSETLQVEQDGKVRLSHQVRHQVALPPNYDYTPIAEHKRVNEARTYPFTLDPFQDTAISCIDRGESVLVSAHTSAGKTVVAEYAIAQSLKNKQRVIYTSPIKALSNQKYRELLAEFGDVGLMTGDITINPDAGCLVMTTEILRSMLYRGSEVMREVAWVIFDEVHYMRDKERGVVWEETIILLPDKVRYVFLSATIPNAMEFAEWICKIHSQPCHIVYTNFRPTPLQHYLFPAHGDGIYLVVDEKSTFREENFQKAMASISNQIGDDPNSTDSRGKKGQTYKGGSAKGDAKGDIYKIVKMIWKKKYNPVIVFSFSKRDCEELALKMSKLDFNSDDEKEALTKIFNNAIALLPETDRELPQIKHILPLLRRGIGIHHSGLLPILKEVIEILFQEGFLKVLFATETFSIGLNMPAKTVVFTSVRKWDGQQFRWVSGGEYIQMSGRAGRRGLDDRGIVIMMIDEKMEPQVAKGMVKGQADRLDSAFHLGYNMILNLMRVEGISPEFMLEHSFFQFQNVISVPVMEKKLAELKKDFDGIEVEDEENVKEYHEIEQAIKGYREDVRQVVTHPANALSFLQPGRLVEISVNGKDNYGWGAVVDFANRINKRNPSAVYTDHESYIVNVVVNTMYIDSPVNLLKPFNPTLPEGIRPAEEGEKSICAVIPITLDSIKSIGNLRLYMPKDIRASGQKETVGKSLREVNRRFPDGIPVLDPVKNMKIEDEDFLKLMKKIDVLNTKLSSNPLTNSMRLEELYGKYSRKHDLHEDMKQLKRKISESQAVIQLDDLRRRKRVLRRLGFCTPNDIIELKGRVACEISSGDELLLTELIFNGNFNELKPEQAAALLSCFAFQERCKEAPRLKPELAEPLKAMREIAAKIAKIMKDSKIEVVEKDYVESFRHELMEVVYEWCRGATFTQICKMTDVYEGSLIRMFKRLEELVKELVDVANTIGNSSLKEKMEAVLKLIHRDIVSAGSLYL

B1: R1-4 RNA duplex (R4 top / R1 bottom) (dsRNA)
RNA 1: AGCACCGUAAAGACGC
RNA 2: GCGUCUUUACGGUGCUAGCUUA
- binding signal (Mtr4p-P731S): ~50 % of wild-type complex
- binding signal (Mtr4p-K700N): < 50 % of wild-type complex
